Assay results as given in the DeepSol protein solubility set.

Assay: soluble on expression in E. coli; label from the status in PepcDB or PDB records

Sequence | soluble on expression in E. coli
MTKVERLLINYKTLEEFKKFKEYGIQELSMLEELQDNIIENDSTSPFYGIYFGDKLVARMSLYQVNGKSNPYFDNRQDYLELWKLEVLPGYQNRGYGRALVEFAKSFKMPIRTNPRMKSAEFWNKMNFKTVKYDMARDKGEDPLIWHPDMDREMTPGESA | soluble
MTLDEEYLDITFLTENGFVRKRCPKCGKHFWTADPEREICGDPPCESYSFIGNPVFKKPFELDEMREYYLNFFERRGHGRIERYPVVARWRTDIYLTIASIADFQPFVTSGVAPPPANPLTISQPCIRLDDLDSVGRTGRHLTLFEMMAHHAFNYPGKEIYWKNETVAYCTELLNELGVKKEDIVYKEEPWAGGGNAGPCLEAIVGGLEVATLVFMNLEEHPEGDIEIKGARYRKMDNYIVDTGYGLERFVWASKGTPTVYDAIFPEVVDTIIDNSNVSFNREDERVRRIVAESSKLAGIMGELRGERLNQLRKSVADTVGVSVEELEGIVVPLEKVYSLADHTRCILFMLGDGLVPSNAGAGYLARLMIRRSLRLAEELELGLDLYDLVEMHKKILGFEFDVPLSTVQEILELEKERYRTTVSKGTRLVERLVERKKKLEKDDLIELYDSHGIPVELAVGIAAEKGAEVEMPKDIYAELAKRHSKAEKVQEKKITLQNEYPATEKLYYDDPTLLEFEAEVIGVEGDFVILNRSAFYPESGGQDNDVGYLIANGGKFEVVDVLEADGVVLHVVKGAKPEVGTKVKGVIDSDVRWRHMRHHSATHVLLYSLQKVLGNHVWQAGARKEFSKARLDVTHFRRPSEEEIKEIEMLANREILANKPIKWEWMDRIEAERKFGFRLYQGGVPPGRKIRVVQVGDDVQACGGTHCRSTGEIGMLKILKVESIQDGVIRFEFAAGEA | soluble
MTLKLIGAGFGRTGTWSTFAALNRLGLPCYHMQEVIMNKANKGHLDFWRKVANSPPGSQHDWNRVFANYTATVDNPGCCVWKELLAAYPDAKVLLTLHPRGAEAWYESTIDTIYFTENVWQFKILEWLTPFGWKFGDMSRKLIWGRTLDGVMNDRAKAVARYNTYVEQVKAAVPPHKLLVYKVTEGWAPLCDFLGLEHHHHHH | soluble
MTLNPRQSALVELVRTQGSATIEALARHFDVTLQTVRRDVNLLSEAGMLSRFHGGVRIESSTIENIAYRKRQGLHAEGKRRIAEAVARAVPDGCSLLINIGTTTEAIARALLRHRGLRVITNNLHVADILSDNPDCEVIVAGGVVRSRDRGIVGEATLDFIRQFKVDIGLIGISGIEADGTLRDYDFREVRVARAIIEQSREVWLAADSSKFQRQAMVELVHVSRIHRFFTDTQPQEPLAQVLQDAGVRCDVAAQSAGAAAALEHHHHHH | not soluble
MTLPQTMKAAVVHAYGAPLRIEEVKVPLPGPGQVLVKIEASGVCHTDLHAAEGDWPVKPPLPFIPGHEGVGYVAAVGSGVTRVKEGDRVGIPWLYTACGCCEHCLTGWETLCESQQNTGYSVNGGYAEYVLADPNYVGILPKNVEFAEIAPILCAGVTVYKGLKQTNARPGQWVAISGIGGLGHVAVQYARAMGLHVAAIDIDDAKLELARKLGASLTVNARQEDPVEAIQRDIGGAHGVLVTAVSNSAFGQAIGMARRGGTIALVGLPPGDFPTPIFDVVLKGLHIAGSIVGTRADLQEALDFAGEGLVKATIHPGKLDDINQILDQMRAGQIEGRIVLEM | soluble
MTLSKRLALLGAQSAITLAKPRGLGSSLGLLDRRPFPYRQFSELTKANGRRAFLVDTLALVRSLEAQGVPSKQAEAITSAITEVLNDSLENVSESFVSKAEMQKIEMIQDSNLSKFKSEVKSSQEHHFTVLQRETEKLRGDIEKMRSELRYEIDKVTAGQRLDLNLERGRIRDELANQNTETTNLTNKLDREIHALRAQLEASKYEVIKYCIGTLVSISAVGLAVLRIMI | not soluble
MTLTRKTLFLLTAAFGTHSLQTASADAVVKAEKLHASANRSYKVAGKRYTPKNQVAEFTQTGNASWYGGRFHGRKTSGGERYDMNAFTAAHKTLPIPSYVRVTNTKNGKSVIVRVNDRGPFHGNRIIDVSKAAAQKLGFVNQGTAHVKIEQIVPGQSAPVAENKDIFIDLKSFGTEHEAQAYLNQAAQNFAVSSSGTNLSVEKRRYEYVVKMGPFTSQERAAEAEAQARGMVRAVLTAG | not soluble
MTMDKSELVQKAKLAEQAERYDDMAAAMKAVTEQGHELSNEERNLLSVAYKNVVGARRSSWRVISSIEQKTERNEKKQQMGKEYREKIEAELQDICNDVLELLDKYLIPNATQPESKVFYLKMKGDYFRYLSEVASGDNKQTTVSNSQQAYQEAFEISKKEMQPTHPIRLGLALNFSVFYYEILNSPEKACSLAKTAFDEAIAELDTLNEESYKDSTLIMQLLRDNLTLWTSENQGDEGENLYFQ | soluble
MTMHREPGGERYYYTWAWFEGPDDAAWRVTGHHTDSGEQYRLDWNLAERSLCVTDSLGRTRCHWWDAQGLVTAYRDEAGQMTTFRWSDEERLLLGMTDAQGGKWRYVYDRLGHLTETHDPLGRVEQTQWHPVWHQPETEVDAAGAAWRYEYDERGNLQAVSDPLHQRTVYGYDRHGQVVRITDARGGDKYLQWNEDGQLMRHTDCSGSQTAWFYDERTRLERVTDAESNSTRYSYDGNGHLTEVMFADGRTERYQPDAAGRLVKYTSPAGQITRWQRDGQGRVRRQTDATGRRTAYEYDAYGRLTTLTNENGESYRFRYDVLDRLTEQTDPGGSRRAYGYNALNAVTAVIYGGERGGEIRHGLERDAAGRLTAKTTPETRTEYRYDAADRLLEIRRRRHDAAEGGEPEVIRFSYDSAGNLLSEETAQGVLQHRYDVQGNRTETQMPDGRTLRYLYYGSGHLQQINLGRDVISEFTRDHLHREVQRSQGRLDTRRMYDRTGRLTRKPTCKGMRGVVPETFIDREYAYSGQDELLKKRHSRQGVTDYFYDTTGRITACRNEAYLDSWQYDAAANLLDRRQGETAQAGAGSVVPFNRITSYRGLHYRYDEYGRVVEKRGRNGTQHYRWDAEHRLTEVAVIRGSTVRRYGYVYDAPGRRVEKHELDAEGKPYNRTTFLWDGMRLAQECRLGRSSSLYIYSDQGSHEPLARVDRAAPGEADEVLYYHTDVNGAPEEMTDGRGNIVWEAGYQVWGNLTHEKETRPVQQNLRFQGQYLDRETGLHYNLYRFYDPDIGKFISGDPISIRGGINLYQYAPNPIKWIDPLGLYNGEGQRELGKYHVFHEHNLDITEYGLSDAEHFSRGNQAIYERMKNDPAFRREMQTKYPGVVEHVQPSSGGKFSTESPPGLTWHHENKPGVLSLVDRLDHKTYLEHHHHHH | not soluble
MTMIKKIETELLAAKATLSEISGRFKEFSDTQARLSADGDLLGLARLNKEHTGLEDSLLAADDTVRALESRLSVLRQAEYRPQFDKAHKTHLGAVQAETKAAEKLLAAIDAVFSAATDMQNLSDEVAATYHAARDLHNRAGLDHELRWPAPDGQIPIKISDRMNSLRDELVRTIRLYEDRLPQSQSLEGLRIIEQQQEELVRNSGRGFR | soluble
MTMKMSGTEIQKHFKTLKGTIAITSIEDGDGSHVVWTFDFEKVHKDIDDSHSIIDETVKYLKELDEVLLKFHE | soluble
MTNAKPENALAAIGIARKELDADRYILISSDLVYTPSNDPKAEDSRTEPITDEGRIFLTAESLMNQERDAIFRTGFIIGLCSVNLYTNVLNMVRSGMRLSLSKSTIRNFIRNADLSSFIMRSIERNISGVYNVASDASTAYDFAKRLCDMAGLKCTLEDSGEDLGNYTMDTSRSLKTFGMRPMSVFEGYTISGSFDLR | not soluble
MTNGFPILRLPSKPLRSILQTMKFVELVSISFTSKVAKRHVKALNMKVSYINMFLSRLTIRLVVNFNGTLPLNFRIPDRNVSEPRKLNKKLNYMKVKEGPIFEETEVFEWKPSGIRFKEIANHVLEIFHKSEFSTLMISHDYDYKTMLQELKDFKIRKLCISSDRIQNSELRRNLLEKYSRQFRELALDYHSLKPQEFHLIVSISYNNCYLYKVPMKLEDLLVSNIFLMCIDKPCPLKQLCLFLKHWINGSNDRLEYLEMNLPANSTKTQFISIALNGIDYQLASTDKEWESANNGLIKTTVVKTGGFDIRQNDGTIATVTVDETFQKLRMFVWK | not soluble
MTNKKKEITIHSSAAEYLTYVASTGRNSDSFEMRYEDENIWLTQKMMATLYDVSVSAINQHLKRIFEDDELVEESVIKKYLITASDGKSYSTKHYNLQAIIAVGFKVNNDRAVRFRKWAGQIVKDYTIQGWTMDKERLKKGHMFTDEYFERQLENIREIRLSERKFYQKVTDLYATAFDYDKDAKTTRQFFKMVQNKMHWAVHRHTAAELIVERANAEKEHMGLTTWESAPDGKIVKADVTVAKNYLSEKEMSYLQRIVSLYLDYAELQAERRIPMSMEDWAKRLDGFLEFNGNELLMGLGKVSAEQAKLHAETEFEKYRIVQDRLFMSDYDKYLIELEHQADQSDV | not soluble
MTNTTMQPNRLRIALQKKGRLSQDCAILLKQCGVKINWNEQRLIAYAENLPIEILRVRDDDIPGLIFDGVVDLGIIGENVLEEEELGRRAANETVTYKKLRQLDFGDCRLSLAVDRDCHYENVKDLANRRIATSYPHLLKRYMNENGVSFKSCLLNGSVEVAPSAGIAYAICDLVSSGATLEANGLKEVDVIYRSKACLIQRAEPLESTKQALVDKLLTRIQGVQQAAESKYIMLHAPKEKLEKITALLPGVENPTILPLASDTTRVAMHVVSQENLFWETMEQLKEAGASSILVLPIEKMMELEHHHHHH | soluble
MTPDPLYMRRAIELAQNAEGFTSPNPLVGAVLVAHGRIIGEGYHHCAGMPHAEVIAINSVRDRALLRESTLYVSLEPCSHYGKTPPCAELILREGIPHVVVAMLDPFPSVSGRGIKMLRDAGVSVQVGLLAEEAEELNRHFLTAQRQHRPYVTLKWAESSDGFIDALRDDASTPPVRLSTPLTTRFVHHRRMIHDAILVGFRTALLDNPSLTVRHWYGRNPLRVVTDRHLALPRHLTLFDGSVPTLVFTEKEQPSGYPSAVSFVRIDPSRPPVEQMLAELHARGIQSLLVEGGACILRSFIDSGLYDDVRIEHSTIILNEGVRAPHLPSY | not soluble
MTPIEAKFARLSTDHAPDQEVRQGNAGLDGLLRGDTLPGTPVDFSHGDVNTSAFAPTPGSLQEFVQGVERGGEQAYTEYRGAADLRLRVAAHLAEFTGAPVDGANELIITPGTQGALFLAIASSVTAGDKVAIVRPDYFANRKLVEFLGDEIVPVDMRHLERDSGAGLDLDQLEAAFKAGVRTFLFSNPNNPAGVVYSPEEIAQIADLARHYDATVIVDQLYSRLLYTGTRYTHLRALPQAPANVITIMGPSKTESLSGYRLGVAFGAAHLIDRMEKLQAIVSLRAPGYCQAVLRTWFQEPAGWMNERIAQHQAIRDDLIRVLRAVPGLAVRAPEAGSYLFPRLPRLAVGLHDFVRILRTQAGVTVTPGTEFSPHADDSIRLNFSQNHAAAVQAIERTAQLIERYRA | not soluble
MTPPIAADYTAQAVSTDTIGYLHSTESGAGVDGPGMRFVFFVSGCQFRCLYCHNPDTWKLHNGRQVSVEQALSEVAPYARFLKFAGGVTISGGEPLMQHEFVGELFHEIKQRFGLHTALDTQGFLHERVSDAWFDDVDLVMLDIKHSDPEKYQALTGQPLQPTLDFALRLKRLRKKMWIRYVLVPGLTDGDADIEKLADFAASLGDVVERVEVLPFHQLGKDKWAQLGMEYQLNDTPIPTAEQAAHARALFASRGLKVTLEHHHHHH | soluble
MTPSKTTLVERCYKYIMSNEKNWSPYTVINRKSWVKNYIEPFFKDTKLIDINPVLIQTFINTTFNNCTFSSSKIRYRFISSVLKEAYRLREINENPCDFVKLPLEHHHHHH | not soluble
